Test results published in paper PMC4837482, “The complex binding mode of the peptide hormone H2 relaxin to its receptor RXFP1” (Nature Communications, 2016).
Where “and” joins values, the source holds several entries; their conditions need not be identical. Equal entries are not always repeated.

T1: RXFP1 G45W46-AA (Homo sapiens, UniProt Q9HBX9, G67A/W68A)
T1 construct: transiently transfected human embryonic kidney (HEK) 293T cells expressing full-length RXFP1 and mutants; expressed in transfected cells; host or cells: HEK293T
T1 sequence (Q9HBX9 23-757 G67A/W68A limits assumed): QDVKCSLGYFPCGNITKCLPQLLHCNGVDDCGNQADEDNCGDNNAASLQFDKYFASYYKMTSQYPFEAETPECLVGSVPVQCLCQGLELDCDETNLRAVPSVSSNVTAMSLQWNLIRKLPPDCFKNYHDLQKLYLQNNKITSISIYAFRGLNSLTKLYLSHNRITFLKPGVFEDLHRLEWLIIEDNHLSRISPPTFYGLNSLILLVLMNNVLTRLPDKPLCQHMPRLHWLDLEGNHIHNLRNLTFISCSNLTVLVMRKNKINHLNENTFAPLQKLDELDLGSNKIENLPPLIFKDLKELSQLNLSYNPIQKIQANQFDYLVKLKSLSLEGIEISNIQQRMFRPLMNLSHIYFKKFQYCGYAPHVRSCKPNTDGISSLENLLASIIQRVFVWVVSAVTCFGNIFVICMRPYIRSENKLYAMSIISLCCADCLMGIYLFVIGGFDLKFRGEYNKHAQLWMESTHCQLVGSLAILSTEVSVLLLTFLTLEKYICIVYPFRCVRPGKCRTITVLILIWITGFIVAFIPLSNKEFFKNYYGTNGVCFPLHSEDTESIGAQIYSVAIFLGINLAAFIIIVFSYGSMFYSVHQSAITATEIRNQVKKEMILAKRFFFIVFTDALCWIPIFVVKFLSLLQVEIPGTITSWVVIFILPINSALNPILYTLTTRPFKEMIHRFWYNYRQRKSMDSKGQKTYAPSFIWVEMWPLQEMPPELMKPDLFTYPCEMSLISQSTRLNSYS

T2: RXFP1 F50A (Homo sapiens, UniProt Q9HBX9, F72A)
T2 construct: expressed in transfected cells; host or cells: HEK293T
T2 sequence (Q9HBX9 23-757 F72A limits assumed): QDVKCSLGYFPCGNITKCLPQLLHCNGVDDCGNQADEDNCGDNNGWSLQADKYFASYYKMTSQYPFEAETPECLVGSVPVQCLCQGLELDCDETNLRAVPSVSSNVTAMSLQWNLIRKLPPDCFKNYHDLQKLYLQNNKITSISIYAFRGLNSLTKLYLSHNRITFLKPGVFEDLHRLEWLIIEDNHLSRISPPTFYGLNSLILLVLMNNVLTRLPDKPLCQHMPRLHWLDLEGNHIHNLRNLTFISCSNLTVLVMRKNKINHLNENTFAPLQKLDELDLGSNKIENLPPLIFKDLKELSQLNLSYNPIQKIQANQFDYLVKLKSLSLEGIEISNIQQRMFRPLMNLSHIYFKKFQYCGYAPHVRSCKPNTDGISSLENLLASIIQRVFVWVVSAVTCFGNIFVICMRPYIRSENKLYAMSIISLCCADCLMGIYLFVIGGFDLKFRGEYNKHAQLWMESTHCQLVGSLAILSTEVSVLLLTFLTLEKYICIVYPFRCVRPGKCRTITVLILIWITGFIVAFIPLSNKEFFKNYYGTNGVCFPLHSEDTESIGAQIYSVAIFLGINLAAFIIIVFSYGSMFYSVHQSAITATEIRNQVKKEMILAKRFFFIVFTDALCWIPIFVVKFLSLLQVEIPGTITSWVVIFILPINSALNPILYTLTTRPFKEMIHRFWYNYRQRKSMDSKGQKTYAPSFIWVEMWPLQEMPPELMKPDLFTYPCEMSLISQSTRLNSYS

T3: RXFP1(1–72) (Homo sapiens, UniProt Q9HBX9)
T3 construct: GB1 (N, cleaved yes); made in house; host or cells: E. coli BL21 (DE3) trxB
T3 sequence (Q9HBX9 23-94 limits assumed): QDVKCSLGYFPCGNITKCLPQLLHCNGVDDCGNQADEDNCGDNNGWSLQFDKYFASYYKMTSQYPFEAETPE

T4: RXFP1_((1–72)) (human)
T4 sequence (Q9HBX9 1-72, looked up): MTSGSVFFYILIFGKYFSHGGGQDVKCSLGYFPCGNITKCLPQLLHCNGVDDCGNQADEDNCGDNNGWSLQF


Tests used:
[1] = molecular target: T1, RXFP1 G45W46-AA; test: Eu-H2 relaxin saturation binding assay, transfected HEK293T cells; details: construct G45W46-AA, maximum H2 concentration 15 nM
[2] = molecular target: LRR domain of RXFP1; test: Affinity for the LRR domain predicted from the titration data; set-up: species or system human; details: predicted from the RXFP1(1–72) titration data
[3] = molecular target: T2, RXFP1 F50A; test: Eu-H2 relaxin saturation binding assay, transfected HEK293T cells; details: F50A RXFP1 versus wild-type RXFP1
[4] = molecular target: T3, RXFP1(1–72); test: 2D 1H-15N HSQC monitored H2 relaxin titration of 15N-labelled RXFP1(1–72); details: 50 μM 15N-labelled RXFP1(1–72); single-site binding curve fit of Asp51, Ala55, Thr61 chemical shifts; pH 6.8, 25 °C; read-out: affinity (Kd) of H2 relaxin for RXFP1(1–72)
Protocol: All RXFP1(1–72) protein samples for nuclear magnetic resonance (NMR) experiments were prepared from lyophilized protein in 50 mM imidazole, with 10 mM CaCl2 at pH 6.8. Recombinant human gene-2 H2 relaxin peptide was kindly provided by Corthera. EL1^(475–486)/EL2-GB1 samples were prepared as described above. Titrant and titrand were dialyzed in the same buffer in the same vessel. All NMR experiments were routinely collected at 25 °C on a 700-MHz Bruker Avance HDIII spectrometer equipped with triple resonance cryoprobe. […] Backbone assignments were made from 3D HNCACB, HNCOCACB, HNCO and HNCACO experiments. Spectra were processed using NMRPipe (ref. [43]) and typically Fourier-transformed after applying Lorentz-to-Gauss window functions in the direct dimension and cosine bells in the indirect dimensions. NMR data were analysed using SPARKY (Goddard, T.D. and Kneller, D.G., University of California, San Francisco). Assignments of the mutant RXFP1(1–72) proteins were determined from the assignments of wild-type RXFP1(1–72).
The binding of H2 relaxin to RXFP1(1–72) was monitored by acquiring 2D ^1H-^15N Heteronuclear Single Quantum Coherence (HSQC; 2,048 × 256 data points) for each titration point of increasing H2 relaxin: 25, 50, 100, 200, 400 and 500 μM against 50 μM RXFP1(1–72). […]

[5] = molecular target: T4, RXFP1_((1–72)) (human); test: NMR titration; 2D 1H-15N HSQC; 50 μM 15N-labelled RXFP1(1–72) titrated with 25-500 μM H2 relaxin; 50 mM imidazole, 10 mM CaCl2, pH 6.8, 25 °C; fit of the shifts of Asp51, Ala55 and Thr61

Kd [5] [µM]	Molecule	Kd [1] [µM]	Kd [2] [µM]	loss in H2 relaxin binding [3]	Kd [4]
–	H2 relaxin: two-chain 6-kDa peptide hormone structurally related to insulin; recombinant human gene-2 H2 relaxin provided by Corthera	> 0.02	~1	tenfold	200 µM and ~200 µM
200	H2 relaxin (ligand, human) chain 1: QLYSALANKCCHVGCTKRSLARFC chain 2: DSWMEEVIKLCGRELVRAQIAICGMSTWS	–	–	–	–
